The nature of the series: soluble on expression in E. coli; label from the status in PepcDB or PDB records.
With “MSLKITRIDIHRTDLPVRGGVYRLSGGREYHSYDATIVSIETDTGLTGWGESTPFGSTYIAAHAGGTRAALELLAPAILGMDPRQHDRIWDRMRDTLKGHRDARAALDIACWDIAAQAAGLPLCDMTGGRVAGPVPVISSIGGDTPEAMRAKVARHRAQGFKGHSIKIGASEAEGGPALDAERITACLADRQPGEWYLADANNGLTVEHALRMLSLLPPGLDIVLEAPCASWAETKSLRARCALPLLLDELIQTETDLIAAIRDDLCDGVGLKVSKQGGITPMLRQRAIAAAAGMVMSVQDTVGSQISFAAILHLAQSTPRHLLRCALDTRAMTTAELAEIDAPLRDGGASAPSDPGLGLRVNRDALGTPVKTFGDPIEGHHHHHH”, the “soluble on expression in E. coli” value is recorded as “soluble”.

Regarding “MSLKITSVRSFLLSYPLPEPVRLPFHGGERTILKRDAMFIRVEADSGLIGYAPGPGSEQAHKAIQQTIAPFLEDRVLADPDALRVLFLQGPGIDAELAKIYCAVEIALYDLVGKARGIPISEMIGGRVRDTIRLYGSAGMYMSPEGYAAEAAAIAALGFRAYKMRPAGGPEQDLETVRQMRKAVGPDFDLMVDAHTWWRMGDSSYPADTVEQLARDMSAYHIAWLEEPLPPDDHAGYLALKQKDLVLLATGEHEPNEDRYLDLILTQAVDYIQMDVCCQGGYALGRRLFAEIARQGLSFAFHSWGTALEVMAAAHLGICWPQMIAEWLEYPCYSSPGRVGMYPFPLAAEILTEPLEIERGDLLVPRAPGLGVAVDESVIERYPWIPGPWSYFRIDSPAENRAVTSDHSVQWDPEAKEGHHHHHH”, the “soluble on expression in E. coli” value is recorded as “soluble”.

Regarding “MSLKKIQFFDTTLRDGEQTPGVNFDVKEKIQIALQLEKLGIDVIEAGFPISSPGDFECVKAIAKAIKHCSVTGLARCVEGDIDRAEEALKDAVSPQIHIFLATSDVHMEYKLKMSRAEVLASIKHHISYARQKFDVVQFSPEDATRSDRAFLIEAVQTAIDAGATVINIPDTVGYTNPTEFGQLFQDLRREIKQFDDIIFASHCHDDLGMATANALAAIENGARRVEGTINGIGERAGNTALEEVAVALHIRKDFYQAETNIVLNQFKNSSDLISRLSGMPVPRNEGHHHHHH”, the “soluble on expression in E. coli” value is given as “soluble”.

Take “MSLKKKLLLMVSVLAVLFVAAACSSKPEAKINTEPYSDRQTMLGTYVQIRIYDDGKEDVLPKAFARVKELGDKITVNQPGSEIDEINQEAGVKPVKVSDDLYPLLKKAYEYSKDSRGGFDMAIGPITSMWHIGFDDARKPSQAEIDQALKLVDYTKVKFNDKEQTVYLEEKGMQLDLGAIAKGFITDEVVKVLKDNGVTTAIVDLGGNVYVLGHSPRGKDMDWTVGIQDPNKARNTVLGQVKESNKTLVTSGIYERYLKVDGKTYHHLFDRETGYPFDNDIAGVTIITDKSIDGDGLSTAVFSMGVKKGLEYVESLKGTDAIFVTKDDKVYISKDIEGNFEIGKDSGYTMGNRADLKEGGSHHHHHH”: the “soluble on expression in E. coli” value is listed as “soluble”.

“MSLKKLILTTAALALSAGMAMADTVRMGTEGAYPPYNFINDAGEVDGFERELGDELCKRAGLTCEWVKNDWDSIIPNLVSGNYDTIIAGMSITDERDEVIDFTQNYIPPTASSYVATSDGADLSGIVAAQTATIQAGYIAESGATLVEFATPEETIAAVRNGEADAVFADRDYLVPIVAESGGELMFVGDDVPLGGGVGMGLRESDGELRGKFDAAITSMKEDGTLNTMIKKWFGEDAAVYEEGHHHHHH”: the “soluble on expression in E. coli” value is “soluble”.

Take “MSLKKSLATIRAEERNYFQSPKWFCDFVEKPIQGLEREEGVHRRDPSSIIKVDNLYYVYYTKSYGPHVGFNTGDLNAKVFPWDYSEIWVATSEDGYVWEEKGVAVTRGEAGRYDDRSVFTVEVMKYDGKYYLVYQTVQHPYVNRSFENIAIAWSDNPLGPFQKSDEPILRPTGDGIWDTEEDNRFLVKKKGSFDSHKVHDPLLFHYRDKFYLYYKGEPMGEEIFMGGRETKWGVAIADSIEGPYIRSEYNPITNSGHETCLWQYKEGMAAFLRTDGVEKNTLQFAEDGINFQIMSVIKWGPEACGPYRPDEIITDDPLEGMKWGMSHSLGKPGCPYGCLVRFDINTKQRDIYAARKKYEEGHHHHHH”: the “soluble on expression in E. coli” value is “soluble”.

For the sequence “MSLKKTTWFAGRFPGYVSPLSSVALSVLAALCPLTSRGESYFNPAFLSADTASVADLSRFEKGNHQPPGIYRVDIWRNDEFVATQDIRFEAGAVGTGDKSGGLMPCFTPEWIKRLGVNTAAFPVSDKGVDTTCIHLPEKIPGAEVAFDFASMRLNISLPQASLLNSARGYIPPEEWDEGIPAALINYSFTGSRGTDSDSYFLSLLSGLNYGPWRLRNNGAWNYSKGDGYHSQRWNNIGTWVQRAIIPLKSELVMGDSNTGNDVFDSFGFRGARLYSSDNMYPDSLQGYAPTVRGIARTAAKLTIRQNGYVIYQSYVSPGAFAITDLNPTSSSGDLEVTVDEKDGSQQRYTVPYSTVPLLQREARVKYDLVAGDFRSGNSQQSSPFFFQGTVIAGLPAGLTAYGGTQLADRYRAVVVGAGRNLGDWGAVSVDVTHARSQLADDSTHQGQSLRFLYAKSLNNYGTNFQLLGYRYSTRGFYTLDDVAYRSMEGYDYEYDSDGRRHKVPVAQSYHNLRYSKKGRFQVNISQNLGDYGSLYLSGSQQNYWNTADTNTWYQLGYASGWQGISYSLSWSWSESVGSSGADRILAFNMSVPFSVLTGRRYARDTILDRTYATFNANRNRDGDNSWQTGVGGTLLEGRNLSYSVTQGRSSSNGYSGSASASWQATYGTLGVGYNYDRDQHDYNWQLSGGVVGHADGITFSQPLGDTNVLIKAPGAKGVRIENQTGVKTDWRGYAVMPYATVYRYNRVALDTNTMDNHTDVENNVSSVVPTEGALVRAAFDTRIGVRAIITARLGGRPLPFGAIVRETASGITSMVGDDGQIYLSGLPLKGELFIQWGEGKNARCIAPYALAEDSLKQAITIASATCIRPASEGGSHHHHHH”, the “soluble on expression in E. coli” value was “soluble”.

Take “MSLKLTKKVGYAGRVITERGLEELEKANISYRLGSIYSNILEKTISANYRFGYVVINRCQVYADFNDVLKIIKSVYESGLAVGDRVGIIDREKFVEINTLCSLNFDNILLQNGIFPLHVCAGVVKYEDGKPVEFKEIIDYKSTSIDPLRAFIEKKETDVMGIIENGEGYLPANFRYFGVEFLERFETILEIDELKCIISYGTENVLGLDVGDDKVGVALIGGLTPIAPFVENNYCVEICPMSSIVRLESLHKLKKNPRDIVTKKANIRIKTALSKMFNAMAKVTYDIDEADGDVIVNTAFIDKKYLDEAFDILKEAYKKGLGISDRFGIVEENDRIKIQTICAVTLDGIFLRNSVPLIPKYGGILEITEDKERFIDIIGYDGSSLDPHEVFFNFVDCEKTFLAGFREVHRVAREKLEEVLKKLNWNGIKAIGEPNNELYGIGVNKDMCGVVTMGGINPLVLLKENEIPIELKAMHEVVRFSDLKSYKEIEGHHHHHH”: the “soluble on expression in E. coli” value is “soluble”.

On to “MSLKNGLRIYALGGISEIGRNMTVFEYNNRLLIVDCGVLFPSSGEPGVDLILPDFGPIENKLDKVDALVITHGHEDHIGAIPWLLKLRPDMPILASKFTMALIAAKCREHRQRPKLIEVNEKSDINRGPFNIRFWAVNHSIPDCLGVAIKTGAGLVIHTGDVKLDQTPPDGRPTDLPALSRFGDEGVDLLLCESTNATVPGFSGSEADVAPTLKRLISDAKQRVILASFASNVYRVQAAVDAAVAAGRKVAFNGRSMIRNMEIAEKMGYLKAPRGTIVSMDDAAKMAPHKVVLITTGTQGEPMAALSRMARREHRQITVRDGDLIILSSSLVPGNEEAVFGVMNMLSQIGATVVTGRDAKVHTSGHGFAGELLFLYNAARPKNVMPVHGEWRHLRANKELAISTGVEADRVVLAQNGVVVDLVDGRARVVGQMQVGHLYVDGVTMGDIDAEVLEERTSLGEGGLIAITAVIDSRTARLLERPTVQAKGFSEDAVAMMPEVTELVEKTMNDLAAEGENDPYRMVQQLRRRVSRFVEQKWRRKPMIMPTVIPTTSATIDIDDADVRASREGHHHHHH”, for which the “soluble on expression in E. coli” value is recorded as “soluble”.

In the case of “MSLKPGDEVKVLTFGQKGTLLEKTGGNEWNVQIGILKMKVKEKDLEFIKSAPEPKKEKMITAVKGKDYHVSLELDLRGERYENALSRVEKYLDDAVLAGYPRVSIIHGKGTGALRKGVQDLLKNHRSVKSSRFGEAGEGGSGVTVVELKEGHHHHHH”, the “soluble on expression in E. coli” value is on record as “not soluble”.

As to “MSLKPVVVMTQTNDMQSDLVSIIHKPFIDIKPLNFDIHLLNQRYDWLIFSSKNAVKFFYKYLKGINVDNIAVIGSKTAQYCESLGIRVDFMPNDFSQEGFLKSFNQTNQKILLPSSELARPLLLAALSKDNEVVKIDLYTSVPNKQNIQDVKEMIEHQQIDALTFSSSSAVRYYFNEGFVPKFKSYFAIGEQTARTIKTYQQPVTIAEIQTLESLIEKILESRGEGHHHHHH”, the “soluble on expression in E. coli” value is given as “soluble”.

“MSLKQFSPDKMLNTPFGITAAQLRKMGKTTILTDLDNTLLAWDQLDATDEVINWFTILKEEGIKVMIFSNNNEERVARVAKAIDVPYLARAKKPLGANFRWALKEMDATPEETVMIGDQIMTDIFGGNRQKLTTIFVRPVKQTDGMATKLNRMMESVILKRLAKKNQIKWEESEGHHHHHH”: the “soluble on expression in E. coli” value was “soluble”.

For “MSLKQNQNSDESIDENMSVDNTETCMVDTVKATAIFWIDKAEAKHCKDSGLRTIKAKVFIHENGKVDFLSFTKKQSSGVEKYILHHLDKFQISKRMLEGGYIQTGEQFVQLRCMREKLQAMQEGHHHHHH”, the “soluble on expression in E. coli” value is “soluble”.

As for “MSLKRLACYIRVSSNKDDQQSSLIQQETLLREKFKQEDLIIYSDTGTGVSFNREGFKRLMYDAGLNICKLNDGRITFEADNIRKPIFDEIVVINTSRFSRNIAIIDILRVLWDYKKINVHFLDNCKNSNNPNDMTVLKMFFSMAENESMETSNRTKRGNEISILDNTIRNNSIFGWDFDREKNYLKINKKEAEIVRFIFKTALTNGLKMTAKIVNEKGYRTKKNRLWSSSTIKTLIVNPKYKGYNVRNKYSNENMFTGVKSKYVKKENWIIQKNNRIEPIVSEELWEEVQRALESRCLHGNREGHHHHHH”, the “soluble on expression in E. coli” value is “soluble”.

Turning to “MSLKSDKDHSVNINARGSFNDRADEISDAEQYGNRLSLAYQGKFLEDTLGVAVGYAHLYQPYVASQFIGLRFNDANEDVNGDGVKEAISEGFELQQKGGDDTRDGYMAAIHWQPTDNFSVKGDLFHSKFTSENFARGFRVKSLKNGTISDAVVESGSMTGGTVSTDGTDNFAVFVVNDNDSKYSELTSGSFNVEWNNGGALTVAADVSYSKADGEFVNGGTRAVLYDDIGNEVRSAESVTYKLNGLSPADISFANDYTNTATLGLKEVGMWPYNQQNDLVAYKLDFNYALDMGFVSSVDFGVRYAEREFNAQRSQAGYGFEYGKNPSNQPVLALNGDMAKVVDFGGELSGYPSFLAIDFNKAIELVNAQLAATGQSPFTPTANWSNNWTMIQSGAVNEDVLAGYVQANLDFDIGDIKVTGNLGVRVVNTDQSSTGLQQVGYGLGEAITDELGVVSKDYIRNEVGKTYTDYLPSLNLTFHLTENDQLRFAAASVMSRPPINKLKSGMGSWYDDSATPGYKKYNAWGNTSPLLDPFYADQYDLSYEHFFEESEGAVVVALFYKDIKSFINDFTIQPFDFEANGFIVPDTIIDNGVEFPVIKNEGQYQTAINNDKGGYIRGIELGYTQIFDFLPSPLDGLGFTGSYSYSDSEVELTTDLSGSNLIMPLPGEGHHHHHH”, the “soluble on expression in E. coli” value is “not soluble”.

For the sequence “MSLKSRTIKSIEVFPVQLPVKRTFNFASGSAGAQGSLAKLVFVKVTDSEGCHGWGEGRAHPQWSYETPESLVSTLRKHLAPAVIGLDIWDRRNLHARMHAAVGRGPSTGMPVAKAALDIAVHDLCARASGLPLRAFLGGSSEKTEVALSWTVAVKSPAEVGDDVAAGRSEGFAHFNFKVGVSLKQDEELVRAARTHVPADSFLWMDANQGVEFTRAVRLARVLEEHAVNVLEQPLAADQMHQMRHLRSQTAIPLAVDESSVSPGDYFAHAAEGLVDYFVLKLTRTGGIWPTLLQLGTATSAGHGLLVSGLSDSMVTKLAACQVAAAFGFTGPAALNGSQFLDDSVLFPTKSAVERRGIVHLDTSPGLGIEPDENALRAHAWKTDCVEGHHHHHH”, the “soluble on expression in E. coli” value is “soluble”.

Turning to “MSLKSYGAVKRISGKNRYVLSENIAKQMGSYDKAIVVTGRVFQDALAIAPYAAAHGYPILLTEKDKLPDYDLPKQVIIIGSSFSVSDSVENQIKKTSEGHHHHHH”, the “soluble on expression in E. coli” value is on record as “soluble”.

Values taken from the DeepSol protein solubility set.
